According to PMC4562997, “Study of light-induced MscL gating by EPR spectroscopy” (European Biophysics Journal, 2015):
Changes are numbered by the printed parent chain. Names and notes keep the numbering of the source. Values belong to the binder of their own block, whether it stands above or below them.

Assays:
[1] = molecular target: the molecule itself; assay: cell-based or functional assay
[2] = molecular target: the molecule itself; assay: chromatofocussing; protein purified in LDAO, detergent exchanged to Triton X-100 by size-exclusion chromatography, then chromatofocussing; pI compared with that of the pentamer
[3] = molecular target: the molecule itself; assay: CW-EPR, intersubunit spin-spin interaction (spectral broadening); heteropentamers with 1, 2 or 3 light switches reconstituted in asolectin liposomes, room temperature, X-band; maximally (10:1) against minimally (1:10) spin-labelled channels
[4] = molecular target: T1, G22C MscL, StrepII-tagged, labelled with the light switch at cysteine 22 (E. coli, UniProt P0A742 1-136, G22C, cysteine 22 alkylated with the light switch (iodoacetate bearing the photocleavable protecting group 6-nitroveratryl alcohol)); assay: sequential affinity chromatography (Ni-NTA, then Streptactin) + chromatofocussing; 6His-tagged and StrepII-tagged proteins purified in LDAO, mixed 1:1 (v/v), 45 min at room temperature, detergent exchanged to Triton X-100 by size exclusion; homopentamers removed on the two columns, heteropentamers separated on Mono P by pI; conditions: both partners purified
T1 construct: MscL, mechanosensitive channel of large conductance, E. coli; also called light switch-labeled-StrepII-tagged MscL; not shown: StrepII, C-terminal, kept
T1 sequence (looked up): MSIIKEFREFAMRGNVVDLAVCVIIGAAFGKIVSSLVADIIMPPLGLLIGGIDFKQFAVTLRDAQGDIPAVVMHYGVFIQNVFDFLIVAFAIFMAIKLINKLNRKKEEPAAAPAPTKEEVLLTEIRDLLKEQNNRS

[5] = molecular target: the molecule itself; assay: native gel or EMSA; blue native gel (8-16 % gradient); pure G22C MscL incubated 1 h at room temperature with urea, guanidinium hydrochloride or trifluoroethanol (various detergents also screened)

B1: G22C-Strep MscL, unlabelled, after detergent exchange from LDAO to Triton X-100 (natural protein, E. coli, UniProt P0A742 1-136, looked up)
chain: T1 sequence (looked up)
notes: MscL, mechanosensitive channel of large conductance, E. coli
- calcein dequenching assay of MscL reconstituted into liposomes, percent release; after exchange of LDAO to Triton X-100 (same protein:lipid ratio) [1]: 85%
- stoichiometry N [2]: 5

- binding result [4]: binds
B2: G22C MscL, 6His-tagged, labelled with the EPR spin label at cysteine 22 (natural protein, E. coli, UniProt P0A742 1-136, looked up)
chain: T1 sequence (looked up)
modifications: cysteine 22 labelled with (1-oxyl-2,2,5,5-tetramethylpyrrolin-3-methyl) methanethiosulfonate spin label (maximally, 10:1, or minimally, 1:10 label:protein)
notes: MscL, mechanosensitive channel of large conductance, E. coli; also called EPR spin-labeled- His-tagged MscL; source: E. coli PB104 (mscL-null), p1BAD vector, purified in LDAO (Ni-NTA), spin-labelled in detergent solution; not shown: 6His, C-terminal, kept
- binding result [3]: binds

B3: G22C MscL (mechanosensitive channel of large conductance, E. coli), pure, unlabelled, as run on the blue native gel (natural protein, UniProt P0A742 1-136, looked up)
chain: T1 sequence (looked up)
notes: MscL, mechanosensitive channel of large conductance, E. coli; The denaturant treatment stands in the methods right after the isolation of the 6His-tagged protein, so the 6His form is likely; source: E. coli PB104 (mscL-null), p1BAD vector, purified from membrane vesicles
- stoichiometry N [5]: 5

- binding result [4]: binds
B4: I24C MscL labelled with the EPR spin label at cysteine 24 (natural protein, E. coli, UniProt P0A742 1-136, looked up)
chain: T1 sequence (looked up) with C22G, I24C
modifications: cysteine 24 labelled with (1-oxyl-2,2,5,5-tetramethylpyrrolin-3-methyl) methanethiosulfonate spin label
notes: MscL, mechanosensitive channel of large conductance, E. coli; source: E. coli PB104 (mscL-null), p1BAD vector, purified, spin-labelled
- binding result [3]: binds

- binding result [4]: binds
B5: A28C MscL labelled with the EPR spin label at cysteine 28 (natural protein, E. coli, UniProt P0A742 1-136, looked up)
chain: T1 sequence (looked up) with C22G, A28C
modifications: cysteine 28 labelled with (1-oxyl-2,2,5,5-tetramethylpyrrolin-3-methyl) methanethiosulfonate spin label
notes: as for B4
- binding result [3]: binds
